The record followed here is US6084068, “Elongin A and C functional domains” (Oklahoma Medical Research Foundation, dated 2000).

The target of the test is T1, Elongin BC complex (wild type rat Elongin B and C) (rat, UniProt P62870).
T1 chain 1: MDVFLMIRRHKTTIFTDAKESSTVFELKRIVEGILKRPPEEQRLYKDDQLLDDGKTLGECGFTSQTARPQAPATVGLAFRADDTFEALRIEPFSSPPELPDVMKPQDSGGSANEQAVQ
T1 chain 2: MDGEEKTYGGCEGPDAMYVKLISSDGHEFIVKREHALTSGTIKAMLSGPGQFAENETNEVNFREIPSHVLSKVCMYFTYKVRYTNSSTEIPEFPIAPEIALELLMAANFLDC
Kind of test: refolded with wild type Elongin B and C; TSK SP-NPR HPLC, SDS-PAGE, silver staining.

B1: Elongin A deletion mutant 1-730 (other)
chain: MAAESALQVVEKLQARLAANPDPKKLLKYLKKLSVLPITVDILVETGVGKTVNSFRKHEQVGNFARDLVAQWKKLVPVERNNEAEDQDFEKSNSRKRPRDVPQQEEEAEGNYQESWQASGSQPYSPEHRQKKHRKLPELERPHKVAHGHERRDERKRCHKVSPPYSSDPESSDYGHVQSPPPSSPHQMYTDLSRSPEMDQEPIVSHPKPGKVHSNTFQDRLGVSHLGEHQGKGAVSQNKPHKSSHKEKRPVDARGDEKSSVMGREKSHKASSKEESRRLLSEDSAKEKLPSSVVKKEKDREGNSLKKKLSPALDVASDNHFKKPKHKDSEKIKSDKNKQSVDSVDSGRGTGDPLPRAKDKVPNNLKAQEGKVRTNSDRKSPGSLPKVEEMDMDDEFEQPTMSFESYLSYDQPRKKKKKVVKTSGTALGEKGLKKKDSKSTSKNLNSAQKLPKANENKSDKLQPAGAEPTRPRKVPTDVLPALPDIPLPAIQTNYRPLPSLELISSFQPKRKAFSSPQEEEEAGFTGRRMNSKMQVYSGSKCAYLPKMMTLHQQCIRVLKNNIDSIFEVGGVPYSVLEPVLERCTPDQLYRIEECNHVLIEETDQLWKVHCHRDFKEERPEEYESWREMYLRLQDAREQRLRLLTNNIRSAHANKPKGRQAKMAFVNSVAKPPRDVRRRQEKFGTGGAAVPEKVRIKPAPYTTGSSHVPASNSSSSFHSSPEELAYEGPST
With B1, the binding result is “binds”.

B2: Elongin A point mutant T549I (other)
chain: MAAESALQVVEKLQARLAANPDPKKLLKYLKKLSVLPITVDILVETGVGKTVNSFRKHEQVGNFARDLVAQWKKLVPVERNNEAEDQDFEKSNSRKRPRDVPQQEEEAEGNYQESWQASGSQPYSPEHRQKKHRKLPELERPHKVAHGHERRDERKRCHKVSPPYSSDPESSDYGHVQSPPPSSPHQMYTDLSRSPEMDQEPIVSHPKPGKVHSNTFQDRLGVSHLGEHQGKGAVSQNKPHKSSHKEKRPVDARGDEKSSVMGREKSHKASSKEESRRLLSEDSAKEKLPSSVVKKEKDREGNSLKKKLSPALDVASDNHFKKPKHKDSEKIKSDKNKQSVDSVDSGRGTGDPLPRAKDKVPNNLKAQEGKVRTNSDRKSPGSLPKVEEMDMDDEFEQPTMSFESYLSYDQPRKKKKKVVKTSGTALGEKGLKKKDSKSTSKNLNSAQKLPKANENKSDKLQPAGAEPTRPRKVPTDVLPALPDIPLPAIQTNYRPLPSLELISSFQPKRKAFSSPQEEEEAGFTGRRMNSKMQVYSGSKCAYLPKMMILHQQCIRVLKNNIDSIFEVGGVPYSVLEPVLERCTPDQLYRIEECNHVLIEETDQLWKVHCHRDFKEERPEEYESWREMYLRLQDAREQRLRLLTNNIRSAHANKPKGRQAKMAFVNSVAKPPRDVRRRQEKFGTGGAAVPEKVRIKPAPYTTGSSHVPASNSSSSFHSSPEELAYEGPSTSSAHLAPVASSSVSYDPRKPAVKKIAPMMAKTIKAFKNRFSRR
Consider B2, for which the binding result was “binds”.

B3: Elongin A point mutant C554F (other)
chain: MAAESALQVVEKLQARLAANPDPKKLLKYLKKLSVLPITVDILVETGVGKTVNSFRKHEQVGNFARDLVAQWKKLVPVERNNEAEDQDFEKSNSRKRPRDVPQQEEEAEGNYQESWQASGSQPYSPEHRQKKHRKLPELERPHKVAHGHERRDERKRCHKVSPPYSSDPESSDYGHVQSPPPSSPHQMYTDLSRSPEMDQEPIVSHPKPGKVHSNTFQDRLGVSHLGEHQGKGAVSQNKPHKSSHKEKRPVDARGDEKSSVMGREKSHKASSKEESRRLLSEDSAKEKLPSSVVKKEKDREGNSLKKKLSPALDVASDNHFKKPKHKDSEKIKSDKNKQSVDSVDSGRGTGDPLPRAKDKVPNNLKAQEGKVRTNSDRKSPGSLPKVEEMDMDDEFEQPTMSFESYLSYDQPRKKKKKVVKTSGTALGEKGLKKKDSKSTSKNLNSAQKLPKANENKSDKLQPAGAEPTRPRKVPTDVLPALPDIPLPAIQTNYRPLPSLELISSFQPKRKAFSSPQEEEEAGFTGRRMNSKMQVYSGSKCAYLPKMMTLHQQFIRVLKNNIDSIFEVGGVPYSVLEPVLERCTPDQLYRIEECNHVLIEETDQLWKVHCHRDFKEERPEEYESWREMYLRLQDAREQRLRLLTNNIRSAHANKPKGRQAKMAFVNSVAKPPRDVRRRQEKFGTGGAAVPEKVRIKPAPYTTGSSHVPASNSSSSFHSSPEELAYEGPSTSSAHLAPVASSSVSYDPRKPAVKKIAPMMAKTIKAFKNRFSRR
On to B3, for which the binding result is given as “binds”.

B4: Elongin A point mutant V557E (other)
chain: MAAESALQVVEKLQARLAANPDPKKLLKYLKKLSVLPITVDILVETGVGKTVNSFRKHEQVGNFARDLVAQWKKLVPVERNNEAEDQDFEKSNSRKRPRDVPQQEEEAEGNYQESWQASGSQPYSPEHRQKKHRKLPELERPHKVAHGHERRDERKRCHKVSPPYSSDPESSDYGHVQSPPPSSPHQMYTDLSRSPEMDQEPIVSHPKPGKVHSNTFQDRLGVSHLGEHQGKGAVSQNKPHKSSHKEKRPVDARGDEKSSVMGREKSHKASSKEESRRLLSEDSAKEKLPSSVVKKEKDREGNSLKKKLSPALDVASDNHFKKPKHKDSEKIKSDKNKQSVDSVDSGRGTGDPLPRAKDKVPNNLKAQEGKVRTNSDRKSPGSLPKVEEMDMDDEFEQPTMSFESYLSYDQPRKKKKKVVKTSGTALGEKGLKKKDSKSTSKNLNSAQKLPKANENKSDKLQPAGAEPTRPRKVPTDVLPALPDIPLPAIQTNYRPLPSLELISSFQPKRKAFSSPQEEEEAGFTGRRMNSKMQVYSGSKCAYLPKMMTLHQQCIRELKNNIDSIFEVGGVPYSVLEPVLERCTPDQLYRIEECNHVLIEETDQLWKVHCHRDFKEERPEEYESWREMYLRLQDAREQRLRLLTNNIRSAHANKPKGRQAKMAFVNSVAKPPRDVRRRQEKFGTGGAAVPEKVRIKPAPYTTGSSHVPASNSSSSFHSSPEELAYEGPSTSSAHLAPVASSSVSYDPRKPAVKKIAPMMAKTIKAFKNRFSRR
As to B4, the binding result is “binds”.

B5: Elongin A deletion mutant 400-773 (other)
chain: TMSFESYLSYDQPRKKKKKVVKTSGTALGEKGLKKKDSKSTSKNLNSAQKLPKANENKSDKLQPAGAEPTRPRKVPTDVLPALPDIPLPAIQTNYRPLPSLELISSFQPKRKAFSSPQEEEEAGFTGRRMNSKMQVYSGSKCAYLPKMMTLHQQCIRVLKNNIDSIFEVGGVPYSVLEPVLERCTPDQLYRIEECNHVLIEETDQLWKVHCHRDFKEERPEEYESWREMYLRLQDAREQRLRLLTNNIRSAHANKPKGRQAKMAFVNSVAKPPRDVRRRQEKFGTGGAAVPEKVRIKPAPYTTGSSHVPASNSSSSFHSSPEELAYEGPSTSSAHLAPVASSSVSYDPRKPAVKKIAPMMAKTIKAFKNRFSRR
For the molecule B5, the binding result is “binds”.

B6: Elongin A internal deletion mutant Δ561-564 (other)
chain: MAAESALQVVEKLQARLAANPDPKKLLKYLKKLSVLPITVDILVETGVGKTVNSFRKHEQVGNFARDLVAQWKKLVPVERNNEAEDQDFEKSNSRKRPRDVPQQEEEAEGNYQESWQASGSQPYSPEHRQKKHRKLPELERPHKVAHGHERRDERKRCHKVSPPYSSDPESSDYGHVQSPPPSSPHQMYTDLSRSPEMDQEPIVSHPKPGKVHSNTFQDRLGVSHLGEHQGKGAVSQNKPHKSSHKEKRPVDARGDEKSSVMGREKSHKASSKEESRRLLSEDSAKEKLPSSVVKKEKDREGNSLKKKLSPALDVASDNHFKKPKHKDSEKIKSDKNKQSVDSVDSGRGTGDPLPRAKDKVPNNLKAQEGKVRTNSDRKSPGSLPKVEEMDMDDEFEQPTMSFESYLSYDQPRKKKKKVVKTSGTALGEKGLKKKDSKSTSKNLNSAQKLPKANENKSDKLQPAGAEPTRPRKVPTDVLPALPDIPLPAIQTNYRPLPSLELISSFQPKRKAFSSPQEEEEAGFTGRRMNSKMQVYSGSKCAYLPKMMTLHQQCIRVLKNIFEVGGVPYSVLEPVLERCTPDQLYRIEECNHVLIEETDQLWKVHCHRDFKEERPEEYESWREMYLRLQDAREQRLRLLTNNIRSAHANKPKGRQAKMAFVNSVAKPPRDVRRRQEKFGTGGAAVPEKVRIKPAPYTTGSSHVPASNSSSSFHSSPEELAYEGPSTSSAHLAPVASSSVSYDPRKPAVKKIAPMMAKTIKAFKNRFSRR
Regarding B6, the binding result is “binds”.

B7: Elongin A internal deletion mutant Δ565-568 (other)
chain: MAAESALQVVEKLQARLAANPDPKKLLKYLKKLSVLPITVDILVETGVGKTVNSFRKHEQVGNFARDLVAQWKKLVPVERNNEAEDQDFEKSNSRKRPRDVPQQEEEAEGNYQESWQASGSQPYSPEHRQKKHRKLPELERPHKVAHGHERRDERKRCHKVSPPYSSDPESSDYGHVQSPPPSSPHQMYTDLSRSPEMDQEPIVSHPKPGKVHSNTFQDRLGVSHLGEHQGKGAVSQNKPHKSSHKEKRPVDARGDEKSSVMGREKSHKASSKEESRRLLSEDSAKEKLPSSVVKKEKDREGNSLKKKLSPALDVASDNHFKKPKHKDSEKIKSDKNKQSVDSVDSGRGTGDPLPRAKDKVPNNLKAQEGKVRTNSDRKSPGSLPKVEEMDMDDEFEQPTMSFESYLSYDQPRKKKKKVVKTSGTALGEKGLKKKDSKSTSKNLNSAQKLPKANENKSDKLQPAGAEPTRPRKVPTDVLPALPDIPLPAIQTNYRPLPSLELISSFQPKRKAFSSPQEEEEAGFTGRRMNSKMQVYSGSKCAYLPKMMTLHQQCIRVLKNNIDSGGVPYSVLEPVLERCTPDQLYRIEECNHVLIEETDQLWKVHCHRDFKEERPEEYESWREMYLRLQDAREQRLRLLTNNIRSAHANKPKGRQAKMAFVNSVAKPPRDVRRRQEKFGTGGAAVPEKVRIKPAPYTTGSSHVPASNSSSSFHSSPEELAYEGPSTSSAHLAPVASSSVSYDPRKPAVKKIAPMMAKTIKAFKNRFSRR
With B7, the binding result is “binds”.

B8: Elongin A deletion mutant 1-680 (other)
chain: MAAESALQVVEKLQARLAANPDPKKLLKYLKKLSVLPITVDILVETGVGKTVNSFRKHEQVGNFARDLVAQWKKLVPVERNNEAEDQDFEKSNSRKRPRDVPQQEEEAEGNYQESWQASGSQPYSPEHRQKKHRKLPELERPHKVAHGHERRDERKRCHKVSPPYSSDPESSDYGHVQSPPPSSPHQMYTDLSRSPEMDQEPIVSHPKPGKVHSNTFQDRLGVSHLGEHQGKGAVSQNKPHKSSHKEKRPVDARGDEKSSVMGREKSHKASSKEESRRLLSEDSAKEKLPSSVVKKEKDREGNSLKKKLSPALDVASDNHFKKPKHKDSEKIKSDKNKQSVDSVDSGRGTGDPLPRAKDKVPNNLKAQEGKVRTNSDRKSPGSLPKVEEMDMDDEFEQPTMSFESYLSYDQPRKKKKKVVKTSGTALGEKGLKKKDSKSTSKNLNSAQKLPKANENKSDKLQPAGAEPTRPRKVPTDVLPALPDIPLPAIQTNYRPLPSLELISSFQPKRKAFSSPQEEEEAGFTGRRMNSKMQVYSGSKCAYLPKMMTLHQQCIRVLKNNIDSIFEVGGVPYSVLEPVLERCTPDQLYRIEECNHVLIEETDQLWKVHCHRDFKEERPEEYESWREMYLRLQDAREQRLRLLTNNIRSAHANKPKGRQAKMAFVNSVAKPPRDVRRRQE
For the molecule B8, the binding result is listed as “binds”.
